B1: H1H6975N: human IgG1 Fc form of H2M6975N; anti-PRLR; HCVR/LCVR SEQ ID NOs 370/378 (antibody, V domains shown)
VH: EVHLVESGGGLVQPGGSLRLSCAASGFTFSSYEMNWVRQTPGKGLEWISHISSRSVIIYYADSVKGRFTISRDNAKNSLFLQMNSLRAEDTAVYFCAGITIFGIPEYWGQGTLVTVSS
VL: EIVLTQSPATLSLSPGERATLSCRASQSVSSYFAWYQQKPGQAPRLLIYDASSRATGIPTRFSGSGSGTDFTLTISSLEPEDFAVYYCQQRSSWPITFGQGTRLEIK
modifications: human IgG1 Fc
B2: H1H6765P: anti-PRLR antibody, human IgG1 Fc; HCVR/LCVR SEQ ID NOs 18/26 (antibody, V domains shown)
VH: EVQLVESGGGVVRPGGSLRLSCVGSGFSFDDHGMNWVRQGPGKGLEWVSGFNWNGGSTNYAESVKGRFTISRDNARNSLFLQMNSLRAEDTALYYCVRGRSGWFNDAFDVWGPGTMVTVSS
VL: EIVLTQSPGTLSLSPGERATLSCRASQTINSNYLAWYRQKPGQTPRLLIYGTSSRATGIPDRFSGSGSGTDFSLTISRLEPEDFAVFYCQQYAGLPTFGPGTKVDIK
modifications: human IgG1 Fc
B3: H1H6762P: anti-PRLR antibody, human IgG1 Fc; HCVR/LCVR SEQ ID NOs 2/10 (antibody, V domains shown)
VH: QVQLVESGGGVVQPGRSLRLSCAASGFTFSHYGMVWVRQPPGKGLEWVALISFDGTTKYYADSVKGRFTISRDNSKNTLYLQMNSLRAEDTAVYFCVGAIAAAAFDLWGRGTLVTVSS
VL: EIVMTQSPATLSVSPGERATLSCRASQSVSSDLAWYQQKPGQAPRLLIYSASARATGIPARFTGSGSGTDFTLTISSLQSEDFAVYYCQQYNNWPMYTFGQGTKLEIK
modifications: human IgG1 Fc
B4: H1H6774P: anti-PRLR antibody, human IgG1 Fc; HCVR/LCVR SEQ ID NOs 34/42 (antibody, V domains shown)
VH: EVQLVESGGGLAQPGGSLRLSCVASGFTFSTYWMSWVRQAPGKGLDWVGNIKQDGSEQNYVDSVRGRFTISRDNAKNSLFLQMNSLRAEDTGVYYCATLLTKGDYWGQGTLVTVSS
VL: DIQMTQSPSSLSASVGDSVTITCRASQDISNYLDWFQQKPGKAPKSLIYAASILQGGVPSRFSGSGYGTDFTLTISSLQPEDFATYYCRQYKTYPFTFGPGTKVDIK
modifications: human IgG1 Fc
B5: H1H6976N: human IgG1 Fc form of H2M6976N; anti-PRLR; HCVR/LCVR SEQ ID NOs 386/394 (antibody, V domains shown)
VH: EVQLLESGGGFVQPGGSLRLSCAASGFTFSSYAMSWVRQAPGKGLEWVSIISSNGRYTYYADSVKGRFTISRDNSKNTLYLQMNSLRAEDTAVYYCATVTGDWFDPWGQGTLVTVSS
VL: DIQLTQSPSFLSASVGDRVTITCWASQDIDISLAWYQQKPGKAPKLLIYAASTLQSGVPSKFSGSGSGTDFTLTISSLQPEDFSTYYCQQLNSYPITFGQGTRLDIK
modifications: human IgG1 Fc

The first experiment has as its system HEK293/hPRLR/STAT5-Luc cells (human PRLR). Kind of experiment: STAT5-Luc luciferase reporter assay, blocking of PRL-mediated receptor activation. The class given is cell-based. The settings on record: 5 nM constant PRL, 6 hr at 37° C. The text has this: The ability of anti-PRLR antibodies to block prolactin (PRL)-mediated receptor activation was examined in a luciferase-based reporter assay. The endocrine hormone PRL binds to the extracellular domain of its cognate receptor PRLR, triggering rapid homodimerization and activating several downstream signaling cascades.
In this example, an engineered cell line was used to determine the ability of anti-PRLR antibodies to block ligand activation of the PRLR receptor. Briefly, HEK293/hPRLR/STAT5-Luc cell lines with stable incorporation of a human PRLR expression cassette and the STAT5-dependent luciferase reporter were generated via sequential rounds of Lipofectamine® 2000-mediated transfection (LifeTechnologies, Carlsbad, Calif.). Cells were selected for at least two weeks in the presence of 500 μg/mL G418 (hPRLR) and 100 μg/mL hygromycin B (STAT5-Luc). The STAT5-Luc assay utilized 2×10^5 HEK293/hPRLR/STAT5-Luc cells seeded in complete growth medium on PDL-coated 96 well plates grown overnight at 37° C., 5% CO2. To generate antibody inhibition curves, cells were incubated (6 hr at 37° C.) with serially diluted anti-human PRLR antibodies (100 nM to 24 pM) in the presence of 5 nM constant PRL before recording signal. PRL dose response curves were generated by the addition of serially diluted PRL (100 nM to 24 pM) to cells and recording signal after a 6 hr (37° C.) incubation in the absence of antibodies. The ability of the antibodies to activate PRLR in the absence of ligand was also assessed.
Luciferase activity was measured with ONE-GLO™ reagent (Promega, Madison, Wis.). Relative light units (RLUs) were measured on a Victor luminometer (Perkin Elmer, Shelton, Conn.). EC50/IC50 values were determined from a four-parameter logistic equation over an 8-point response curve using GraphPad Prism. Percent blocking and percent activation are reported for the highest antibody dose.
As usually defined, the IC50 is the concentration at which inhibition is half-maximal. A high value points to a need for much substance. Molecule B1 yielded an IC50 of 0.241 nM.

In turn, B2 showed an IC50 of 0.033 nM.

For the molecule B3, the midpoint of inhibition, the IC50, lay at 0.0219 nM.

The experiment is the same for the next values; noted with them: 100 nM antibody, 5 nM PRL.
With B1, the “Percent Blocking at 100 nM Antibody” value is 100%.

Consider B4, for which the “Percent Blocking at 100 nM Antibody” value was determined as 0%.

Regarding B5, the “Percent Blocking at 100 nM Antibody” value came out at 23%.

With B2, the “Percent Blocking at 100 nM Antibody” value was determined as 100%.

For the molecule B3, the “Percent Blocking at 100 nM Antibody” value worked out at 100%.

A further experiment addresses T1, PRLR-expressing cells (T47D) (Homo sapiens, UniProt P16471).
T1 construct: a native PRLR expressing cell line (T47D); endogenous in cells; host or cells: T47D
T1 sequence (P16471 25-622): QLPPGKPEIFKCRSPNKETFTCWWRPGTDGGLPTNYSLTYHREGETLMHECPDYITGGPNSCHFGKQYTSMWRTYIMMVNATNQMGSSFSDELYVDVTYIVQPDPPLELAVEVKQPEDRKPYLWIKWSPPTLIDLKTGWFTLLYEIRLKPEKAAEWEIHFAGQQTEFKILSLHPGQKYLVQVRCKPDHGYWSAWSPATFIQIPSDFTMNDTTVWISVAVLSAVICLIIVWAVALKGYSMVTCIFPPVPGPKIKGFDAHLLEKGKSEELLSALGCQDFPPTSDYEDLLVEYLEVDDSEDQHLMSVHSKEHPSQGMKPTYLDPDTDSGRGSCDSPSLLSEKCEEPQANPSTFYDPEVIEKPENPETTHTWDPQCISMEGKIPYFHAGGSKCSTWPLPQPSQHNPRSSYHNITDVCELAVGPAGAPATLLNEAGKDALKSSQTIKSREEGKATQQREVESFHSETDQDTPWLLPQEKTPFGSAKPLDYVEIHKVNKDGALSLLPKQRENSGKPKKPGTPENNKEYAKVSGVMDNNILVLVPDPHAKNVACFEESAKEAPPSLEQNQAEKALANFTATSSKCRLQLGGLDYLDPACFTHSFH
In words: Antibody binding and internalization by PRLR-expressing cells (imaging). As to conditions: [mAb] (0.67 nM), alexa488 intensity in intracellular vesicles, 1 h at 37° C. The class given is cell-based. How it is done:
In this Example, the internalization of anti-PRLR antibodies by PRLR-expressing cells (T47D) was assessed. Briefly, 20,000 T47D cells were seeded in collagen coated 96 well plates. […] Cells were then incubated with alexa488 conjugated anti-hFc Fab secondary antibodies for 30 minutes on ice followed by two additional PBS washes. Antibodies were allowed to internalize for 1 h at 37° C. in internalization buffer (PBS+2% FBS) or remained at 4° C. Cells were fixed in 4% formaldehyde, nuclei were stained with DRAQ5 (Cell signaling), and images were acquired on the ImageXpress micro XL (Molecular Devices). Whole cell alexa488 intensity at 37° C. (Binding) and the alexa488 intensity in the intracellular vesicles at 37° C. (Internalization) were determined via Columbus image analysis software (PerkinElmer).
Regarding B1, the “% Internalization relative to Control I” value is reported as 214.2%.

As to B4, the “% Internalization relative to Control I” value is listed as 162.3%.

In the case of B5, the “% Internalization relative to Control I” value is listed as 169.5%.

B2: the “% Internalization relative to Control I” value was found to be 186.3%.

As for B3, the “% Internalization relative to Control I” value came to 186.3%.

Staying with this experiment, now noted: [mAb] (0.67 nM), whole cell alexa488 intensity at 37° C.
Regarding B1, the “% Total Binding relative to Control I” value was determined as 225.9%.

For B4, the “% Total Binding relative to Control I” value is listed as 173.7%.

Regarding B5, the “% Total Binding relative to Control I” value stood at 180.4%.

Regarding B2, the “% Total Binding relative to Control I” value came out at 191.3%.

B3: the “% Total Binding relative to Control I” value came to 176.7%.

The test system of a further experiment is HEK293/mfPRLR. In words: FACS cell surface binding. Set-up: species or system macaca fascicularis.
Chain of HEK293/mfPRLR (as listed by the source): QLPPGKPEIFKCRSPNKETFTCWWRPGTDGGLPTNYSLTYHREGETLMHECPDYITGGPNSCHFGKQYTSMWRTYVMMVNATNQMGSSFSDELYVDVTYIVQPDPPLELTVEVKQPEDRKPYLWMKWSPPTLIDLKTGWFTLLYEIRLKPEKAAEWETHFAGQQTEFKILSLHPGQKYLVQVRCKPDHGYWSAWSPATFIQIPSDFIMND
Conditions: not given
How it is done:
The ability of anti-PRLR antibodies to selectively bind PRLR expressing cell lines was next determined. Human, monkey macaca fascicularis, and mouse PRLR constructs with an HA tag were stably introduced into HEK293 cells via Lipofectamine 2000-mediated transfection methodology. Transfectants (HEK293/hPRLR, HEK293/mfPRLR and HEK293/mPRLR) were selected for at least 2 weeks in complete growth media plus G418.
Cell surface expression of PRLR on 293/hPRLR cells was assessed via FACS analysis. Briefly, 1×10^5 cells were incubated with 10 μg/ml of Control antibody I, or an isotype control for 30 min on ice in antibody dilution buffer. Following two washes with antibody dilution buffer, cells were incubated with 10 μg/ml of PE conjugated anti-human secondary antibodies for 30 min on ice. Following two additional washes, samples were run on a Hypercyt® cytometer and analyzed in FORECYT™ (IntelliCyt, Albuquerque, N. Mex.). The mean fluorescence intensities (MFI) were expressed as fold change above isotype control levels (background). FACS binding confirmed that Control I selectively bound to 293/hPRLR expressing cells with MFIs that were 30 fold above background (isotype ctrl) levels and less than 2 fold binding on parental cells.
Next, the anti-PRLR antibodies of the present invention were tested via FACS for selective binding to the engineered overexpressing PRLR HEK293 cell lines, as well as to non-expressing HEK293 cells and a native PRLR expressing cell line (T47D).
Turning to B1, the “FACS Cell Binding (Fold Above Background)” value was found to be 29 Fold Above Background.

Turning to B4, the “FACS Cell Binding (Fold Above Background)” value came out at 29 Fold Above Background.

Regarding B5, the “FACS Cell Binding (Fold Above Background)” value turned out to be 29 Fold Above Background.

B2: the “FACS Cell Binding (Fold Above Background)” value is 27 Fold Above Background.

As to B3, the “FACS Cell Binding (Fold Above Background)” value is reported as 26 Fold Above Background.

The target of the next experiment is T2, hPRLR.mmh (soluble monomeric human PRLR) (Homo sapiens, UniProt P16471).
T2 construct: soluble monomeric (hPRLR.mmh); mmh (myc-myc-hexahistidine)
T2 sequence (P16471 with tags, fused parts or gaps): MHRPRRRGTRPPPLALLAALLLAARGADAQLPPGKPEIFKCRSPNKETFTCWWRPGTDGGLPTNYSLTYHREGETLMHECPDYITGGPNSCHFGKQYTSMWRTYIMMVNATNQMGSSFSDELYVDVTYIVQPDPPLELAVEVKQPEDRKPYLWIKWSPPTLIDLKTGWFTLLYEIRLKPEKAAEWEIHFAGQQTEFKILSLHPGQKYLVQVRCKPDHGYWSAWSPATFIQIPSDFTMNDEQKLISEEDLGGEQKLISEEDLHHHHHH
Kind of experiment: Surface plasmon resonance (Biacore T200), mAb-capture format. The class given is binding. As to conditions: 25° C., antibody-capture format, analyte hPRLR.mmh. As to the method:
Antibodies, expressed as human IgG1 Fc “[…]” designations), were captured onto an anti-human Fc sensor surface (mAb-capture format), and soluble monomeric (hPRLR.mmh; SEQ ID NO:401, or macaca fascicularis (mf) PRLR.mmh; SEQ ID NO:403) or dimeric (hPRLR.mFc; SEQ ID NO:402) PRLR protein was injected over the sensor surface. Measurements were conducted on a T200 Biacore instrument. Kinetic association (ka) and dissociation (kd) rate constants were determined by processing and fitting the data to a 1:1 binding model using Scrubber 2.0 curve fitting software.
For orientation: SPR reads the build-up and loss of mass on a sensor chip optically.
One may read the Kd as the free concentration of one partner at which half of the binding sites on the other are occupied at equilibrium, for simple one-to-one binding. Molecule B1 registered a Kd of 0.49 nM and a T½ of 157.1 min.

B4 gave a Kd of 1.14 nM and a T½ of 14 min.

For B5, the Kd was 1.59 nM and the T½ is listed as 13.4 min.

For the molecule B2, the Kd was found to be 0.124 nM and the T½ is 102 min.

In turn, B3 showed a Kd of 0.259 nM and a T½ of 64 min.

Still in this experiment, the particulars now being: 37° C., antibody-capture format, analyte hPRLR.mmh.
B1 came in with a Kd of 1.29 nM and a T½ of 42.3 min.

B4 came in with a Kd of 2.95 nM and a T½ of 4 min.

As for B5, the Kd came out at 4.04 nM and the T½ is on record as 3.7 min.

Consider B2, for which the Kd came out at 0.292 nM and the T½ came to 32 min.

The molecule B3 came in with a Kd of 0.48 nM and a T½ of 25 min.

For the origin of these results see patent US9688764B2, “Methods of treating breast cancer by administering anti-human prolactin receptor (PRLR) antibodies” (REGENERON PHARMACEUTICALS, INC., priority 2013, dated 2017).
